# Test results from PMC11661447.
# Target: RNA-dependent RNA polymerase (RdRp) of HuNoV GII.4 Sydney strain (human norovirus GII.4 Sydney strain)
# Assay: SEC + AUC; purified RdRp alone, physiologically relevant conditions (pH 7.5); sedimentation velocity of 10 μM RdRp at 40,000 rpm, 22°C; monomer, dimers and higher-order oligomers
substance,measurement,value
RNA-dependent RNA polymerase (RdRp) of HuNoV GII.4 Sydney strain (enzyme),percent as dimers,15%
same,percent as monomer,75%
same,stoichiometry N,2
